Drawing on patent US20250002575A1 (Genentech, published 2025), this text covers Kd, koff and kon for 2 molecules.

In test [1] the target is T1, reduced recombinant human IL-33 (His-tagged, amino acids 112-270) (human, UniProt O95760 112-270).
T1 construct: range 112-270; Expressed in E. coli; kept in the reduced state (all four cysteines free) with TCEP; also called reduced hIL-33; hIL-33
T1 sequence: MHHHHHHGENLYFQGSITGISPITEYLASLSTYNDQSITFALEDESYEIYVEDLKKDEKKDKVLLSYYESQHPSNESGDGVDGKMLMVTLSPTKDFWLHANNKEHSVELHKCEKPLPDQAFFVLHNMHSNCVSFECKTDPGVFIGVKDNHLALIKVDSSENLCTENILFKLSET
The experiment in a line: SPR (Biacore 8K), antibody captured on Protein A chip, reduced hIL-33 as analyte, multi-cycle kinetics, 25 C. How it is done: (§1) A Series S Protein A sensor chip (Cytiva, Marlborough, MA, USA) was used to capture recombinant chimeric human IgG versions of anti-hIL-33 Abs using a BIACORE® 8 k instrument (Cytiva, Marlborough, MA, USA). Antibody binding to human histidine-tagged hIL-33 (Genentech, South San Francisco, CA, USA) was measured using multi-cycle kinetics. Sensorgrams were recorded using an injection time of 2 minutes with a flow rate of 30 μL/min, at 25° C. or 37° C., and with a running buffer of 10 mM N-2-hydroxyethylpiperazine-N′-2-ethanesulfonic acid (HEPES), pH 7.4, 150 mM sodium chloride (NaCl), 3 mM ethylenediaminetetraacetic acid (EDTA), and 0.005% TWEEN® 20. After injection, dissociation of hIL-33 from the antibody was monitored for 10 minutes in running buffer. The surface was regenerated between binding cycles with a 30 μL injection of 10 mM Glycine hydrochloric acid (HCl) pH 1.5. After subtraction of a blank containing running buffer only, sensorgrams were analyzed using a 1:1 Langmuir binding model with software supplied by the manufacturer to calculate the kinetics and binding constants.
On the technique in general: SPR reads the build-up and loss of mass on a sensor chip optically.

In test [2] the target is T1, reduced recombinant human IL-33 …. Put plainly: SPR (Biacore), antibody captured, reduced hIL-33 as analyte. On the procedure: as §1

B1: rat/human chimeric anti-hIL-33 3F10 MAb (antibody, human IgG1, kappa, V domains shown)
VH: QVQLEESGPGLVQPSQTLSLTCTVSGFSLTSQNVHWVRQPPGKGLEWMGRMRFNGDTSYNSTLKSRLSISRDTSKNQVFLRLNSLQTDDTGTYYCARQRDNYGSYYFDDWGQGIMVTVSS
VL: DTVLTQSPALAVSPGERVTISCRASESVLTLLNWYQQKPGQHPKLLIYLASHLESGVPARFSGRGSGTDFTLTIDPVEADDTASYYCQQSWIDPWTFGGGTTLELKR
notes: Rat variable domains on human IgG1/kappa constant regions; also called clone 3F10; capture MAb
For B1, in test [1], the Kd – broadly, the constant that tells how readily two partners part at equilibrium – was determined as 0.777 nM; the koff (commonly a measure of how fast the partners let go of each other) was 0.000243 s⁻¹; the kon (commonly the second-order rate constant of association) was 312000 M⁻¹ s⁻¹. Further, the Kd in test [2] turned out to be 0.487 nM.

B2: rat IgG2a anti-human IL-33 clone 15.21C7 (antibody, V domains shown)
VH: EVQLVESGGGLVQPGTSLKLSCVASGFTFSDFWMSWVRQTPGKTMEWIADIKNDGSHTKYAPSLQNRFTISRDNAKNTLYLEVTDVRSEDTATYYCTRVGGTYTAYYWGHGVMVTVSS
VL: DIQMTQTPSSMPASLGERVTLSCRTSQGINTYLNWYQQKPDGTITPLIHYTSNLESGVPSRFSGSGFGTDYFLTISSLEPEDFAMYFCQQYASSPWTFGGGTKLELKK
notes: also called rat anti-reduced hIL-33 15.21C7 IgG2a
Regarding B2, in test [1], the Kd worked out at 0.291 nM, the koff was found to be 0.000146 s⁻¹ and the kon was determined as 501000 M⁻¹ s⁻¹. In addition, in test [2], the dissociation constant (Kd) was 0.338 nM.
